Laboratory results published in paper PMC7903523 (Nature, 2020).

Target: the molecule itself
Experiment: cryo-EM structure

B1: human sterol O-acyltransferase 1 (ACAT1), full length, C-terminal Flag-tag (enzyme, UniProt P35610 1-550, looked up)
chain: MVGEEKMSLRNRLSKSRENPEEDEDQRNPAKESLETPSNGRIDIKQLIAKKIKLTAEAEELKPFFMKEVGSHFDDFVTNLIEKSASLDNGGCALTTFSVLEGEKNNHRAKDLRAPPEQGKIFIARRSLLDELLEVDHIRTIYHMFIALLILFILSTLVVDYIDEGRLVLEFSLLSYAFGKFPTVVWTWWIMFLSTFSVPYFLFQHWATGYSKSSHPLIRSLFHGFLFMIFQIGVLGFGPTYVVLAYTLPPASRFIIIFEQIRFVMKAHSFVRENVPRVLNSAKEKSSTVPIPTVNQYLYFLFAPTLIYRDSYPRNPTVRWGYVAMKFAQVFGCFFYVYYIFERLCAPLFRNIKQEPFSARVLVLCVFNSILPGVLILFLTFFAFLHCWLNAFAEMLRFGDRMFYKDWWNSTSYSNYYRTWNVVVHDWLYYYAYKDFLWFFSKRFKSAAMLAVFAVSAVVHEYALAVCLSFFYPVLFVLFMFFGMAFNFIVNDSRKKPIWNVLMWTSLFLGNGVLLCFYSQEWYARQHCPLKNPTFLDYVRPRSWTCRYVF
stoichiometry N: 4
